Reference: FireProtDB (doi:10.1021/bi982158q)

B1: Cytochrome b5, P00171 (parent)
chain: MAEESSKAVKYYTLEEIQKHNNSKSTWLILHYKVYDLTKFLEEHPGGEEVLREQAGGDATENFEDVGHSTDARELSKTFIIGELHPDDRSKITKPSESIITTIDSNPSWWTNWLIPAISALFVALIYHLYTSEN

Variants of: B1
Conditions: Bos taurus, pH 7, K2HPO4 5 mM, transition: 2, reversible: Yes, structure 1CYO, whole UniProt chain shown; for denaturant m value / denaturant midpoint (higher = more stable) / unfolding free energy: 25 °C, Urea; for Tm / change of melting temperature, mutant - wild type (higher = more stable): Thermal

Variant	denaturant m value (Absorbance)	denaturant midpoint (higher = more stable) (Absorbance)	unfolding free energy (Absorbance)	denaturant m value (Fluorescence)	denaturant midpoint (higher = more stable) (Fluorescence)	unfolding free energy (Fluorescence)	Tm (Absorbance)	change of melting temperature, mutant - wild type (higher = more stable) (Absorbance)	Tm (Fluorescence)	change of melting temperature, mutant - wild type (higher = more stable) (Fluorescence)
MAEESSKAVKYYTLEEIQKHNNCKSTWLILHYKVYDLTKFLEEHPGGEEVLCEQAGGDATENFEDVGHSTDARELSKTFIIGELHPDDRSKITKPSESIITTIDSNPSWWTNWLIPAISALFVALIYHLYTSEN	0.81 kcal/mol/M	6.4 M	5.2 kcal/mol	0.93 kcal/mol/M	3.7 M	3.4 kcal/mol	76 °C	0.8 °C	60.8 °C	10.7 °C
MAEESSKAVKYYTLEEIQKHNNCKSTWLILHYKVYDLTKFLEEHPGGEEVLREQAGGDATENFEDVGHSTDARELSKTFIIGELHPDDRSKITKPSESIITTIDSNPSWWTNWLIPAISALFVALIYHLYTSEN	0.97 kcal/mol/M	6.5 M	6.9 kcal/mol	0.56 kcal/mol/M	2.5 M	1.4 kcal/mol	75.5 °C	0.3 °C	52.7 °C	2.6 °C
